Experimental findings from IntAct's records for PubMed 22582013 are described below.

The labels stand for the following.
B1: Extracellular serine/threonine protein kinase FAM20C (Homo sapiens), Q8IXL6 (parent)
chain: MKMMLVRRFRVLILMVFLVACALHIALDLLPRLERRGARPSGEPGCSCAQPAAEVAAPGWAQVRGRPGEPPAASSAAGDAGWPNKHTLRILQDFSSDPSSNLSSHSLEKLPPAAEPAERALRGRDPGALRPHDPAHRPLLRDPGPRRSESPPGPGGDASLLARLFEHPLYRVAVPPLTEEDVLFNVNSDTRLSPKAAENPDWPHAGAEGAEFLSPGEAAVDSYPNWLKFHIGINRYELYSRHNPAIEALLHDLSSQRITSVAMKSGGTQLKLIMTFQNYGQALFKPMKQTREQETPPDFFYFSDYERHNAEIAAFHLDRILDFRRVPPVAGRMVNMTKEIRDVTRDKKLWRTFFISPANNICFYGECSYYCSTEHALCGKPDQIEGSLAAFLPDLSLAKRKTWRNPWRRSYHKRKKAEWEVDPDYCEEVKQTPPYDSSHRILDVMDMTIFDFLMGNMDRHHYETFEKFGNETFIIHLDNGRGFGKYSHDELSILVPLQQCCRIRKSTYLRLQLLAKEEYKLSLLMAESLRGDQVAPVLYQPHLEALDRRLRVVLKAVRDCVERNGLHSVVDDDLDTEHRAASAR

The variants in this test derive from B1. Conditions: with ostp_human SPP1, P10451.
Chain of ostp_human SPP1, P10451 (P10451 whole entry): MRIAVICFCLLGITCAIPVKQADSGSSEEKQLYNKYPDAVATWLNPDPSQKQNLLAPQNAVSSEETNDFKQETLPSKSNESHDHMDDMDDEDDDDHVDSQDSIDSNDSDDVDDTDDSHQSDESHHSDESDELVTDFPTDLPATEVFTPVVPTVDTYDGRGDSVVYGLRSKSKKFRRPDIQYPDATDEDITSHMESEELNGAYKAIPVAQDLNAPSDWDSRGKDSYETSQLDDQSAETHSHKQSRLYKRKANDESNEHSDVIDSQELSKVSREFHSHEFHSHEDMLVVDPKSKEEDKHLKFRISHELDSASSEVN
In the case of R549W, the “effect of a mutation on the interaction” value was “with no effect”.
For the variant I258N;G280R, the “effect of a mutation on the interaction” value is given as “with no effect”.
Next, K338R: “with no effect”.
In the case of G379R, the “effect of a mutation on the interaction” value was “with no effect”.
Next, G379E: “with no effect”.
For P328S the value was “with no effect”; for D451N, “with no effect”.
For D478A the value was “with no effect”.
